From article PMC4439613, “TRIP13 is a protein-remodeling AAA+ ATPase that catalyzes MAD2 conformation switching” (eLife, 2015)

Legend:
[1] = molecular target: C. elegans MAD-2 (MDF-2) (C. elegans); assay: SEC-MALS; single purified proteins on Superdex 200 10/300 GL; PCH-2 and TRIP13 with and without added nucleotides
[2] = substrate: Nc1ncnc2c1ncn2[C@@H]1O[C@H](COP(=O)(O)OP(=O)(O)OP(=O)(O)O)[C@@H](O)[C@H]1O; assay: enzyme-coupled ATPase assay (pyruvate kinase / lactate dehydrogenase, NADH); format: biochemical, Caenorhabditis elegans; settings: basal, pH 8.5, 27 °C, 10 mM MgCl2, 200 mM NaCl, kcat per hexamer
[3] = molecular target: the molecule itself; assay: SEC-MALS; single purified proteins on Superdex 200 10/300 GL; PCH-2 and TRIP13 with and without added nucleotides
[4] = substrate: Nc1ncnc2c1ncn2[C@@H]1O[C@H](COP(=O)(O)OP(=O)(O)OP(=O)(O)O)[C@@H](O)[C@H]1O; assay: enzyme-coupled ATPase assay (pyruvate kinase / lactate dehydrogenase, NADH); format: biochemical, Caenorhabditis elegans; settings: basal, pH 8.5, 27 °C, 10 mM MgCl2, 200 mM NaCl, kcat per hexamer; remark: listed apart in the source
Text: enzyme-coupled ATPase assay (pyruvate kinase / lactate dehydrogenase, NADH) on PCH-2 | the kcat of PCH-2^W221A around threefold higher than that of the wild-type enzyme

[5] = molecular target: the molecule itself; assay: SEC; PCH-2 pore loop mutants compared with wild type on a size-exclusion column
[6] = substrate: Nc1ncnc2c1ncn2[C@@H]1O[C@H](COP(=O)(O)OP(=O)(O)OP(=O)(O)O)[C@@H](O)[C@H]1O; assay: enzyme-coupled ATPase assay (pyruvate kinase / lactate dehydrogenase, NADH); format: biochemical, Mus musculus; settings: basal, pH 8.5, 27 °C, 10 mM MgCl2, 200 mM NaCl, kcat per hexamer
[7] = molecular target: T1, His6-tagged M. musculus p31(comet) (M. musculus, UniProt Q9DCX1 1-276); assay: pull-down; Ni2+ pull-down: 300 pmol His6-tagged p31(comet) with 450 pmol untagged MAD2 in 50 μl (20 mM Tris-HCl pH 7.5 or 8.5, 200 mM NaCl, 20 mM imidazole, 0.1% NP-40), 20°C, Ni-NTA magnetic beads, Coomassie; settings: both partners purified
T1 construct: p31(comet), M. musculus, full length; The same construct as m12 with the TEV-cleavable His6 tag left on for the Ni2+ pull-down; also called His6-tagged p31(comet); source: E. coli Rosetta 2 (DE3) pLysS, purified; not shown: His6, N-terminal, kept
T1 sequence (looked up): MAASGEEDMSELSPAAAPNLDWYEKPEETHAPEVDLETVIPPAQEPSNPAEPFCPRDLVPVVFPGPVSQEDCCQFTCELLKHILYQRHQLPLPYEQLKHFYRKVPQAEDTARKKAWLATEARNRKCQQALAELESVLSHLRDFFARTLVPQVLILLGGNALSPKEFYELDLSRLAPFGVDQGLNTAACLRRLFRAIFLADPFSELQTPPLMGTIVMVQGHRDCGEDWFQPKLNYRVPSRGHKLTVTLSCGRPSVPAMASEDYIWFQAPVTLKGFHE

[8] = molecular target: T2, M. musculus p31(comet) (wild type, tag cleaved) (M. musculus, UniProt Q9DCX1 1-276); assay: SEC; as a8 but mixtures of two of the three proteins (one left out); settings: both partners purified
T2 construct: p31(comet), M. musculus, full length; also called wild-type p31(comet); source: E. coli Rosetta 2 (DE3) pLysS, purified (Ni-NTA, Hitrap Q ion exchange, Superdex 200 SEC); not shown: His6, N-terminal, cleaved
T2 sequence (looked up): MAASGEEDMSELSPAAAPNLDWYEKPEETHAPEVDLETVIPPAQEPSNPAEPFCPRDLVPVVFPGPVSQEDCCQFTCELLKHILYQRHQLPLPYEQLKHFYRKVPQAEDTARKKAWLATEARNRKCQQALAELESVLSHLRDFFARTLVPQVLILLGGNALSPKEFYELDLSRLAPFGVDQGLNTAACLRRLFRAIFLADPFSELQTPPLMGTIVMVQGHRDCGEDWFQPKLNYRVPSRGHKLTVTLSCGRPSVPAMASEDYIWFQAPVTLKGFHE

Molecule	Km [2]	kcat [2]	stoichiometry N [3]	stoichiometry N [5]	further results
C. elegans MAD-2 (MDF-2) (natural protein)					stoichiometry N [1]: 2
Caenorhabditis elegans PCH-2 (enzyme, C. elegans, UniProt Q09535 1-424, looked up, PCH-2 (TRIP13 ortholog), C. elegans, full length, 424 residues; Selenomethionine-derivatised protein was used for phasing only; two subunits of the hexamer carry ADP in the crystal; also called C. elegans TRIP13 ortholog; wild-type PCH-2; source: E. coli Rosetta 2 (DE3) pLysS, purified (Ni-NTA, Hitrap Q ion exchange, Superdex 200 SEC); not shown: His6, N-terminal, cleaved) MHEPMKTLKNIHAEIRICQKFPKSTVQKRFSEFEELIKAASKNARNWKPISSVELFQGDSSLNELFEKLVIGTCELRDGELFENVNDLTINPSNIHVYKLHKDGPLSQNIGDDDGDESIIGSQLWQLPCVEFDSIWENLIYDSNLKNEVMSYVAALARLSEKHVNTKIINVNRLILLTGPPGTGKTSLCKGLAQHLSIRMNDKYSKSVMLEINSHSLFSKWFSESGKLVQKMFDQIDELAEDEKCMVFVLIDEVESLGMCRESSSSRSEPSDAIRAVNALLTQIDRIRRRDNVLILCTSNLESTLDKALVDRADIVKNVGQPSDFARYSMLKSSIMELARIGVVIDNEVHTDYWPQDICDTKAPRNEFTEILFKIAQEARGLSGRAISMLPTLVYSKSPEETITLPNCMNLFLEAVKERLSRNN	9.5 ± 1.3 µM	56.0 +/- 1.5 ATP min^-1	6		
C. elegans PCH-2^W221A (enzyme, UniProt Q09535 1-424, looked up, PCH-2, C. elegans, full length, pore loop mutation W221A; also called pore loop mutant W221A; source: E. coli Rosetta 2 (DE3) pLysS, purified (Ni-NTA, Hitrap Q ion exchange, Superdex 200 SEC); not shown: His6, N-terminal, cleaved) MHEPMKTLKNIHAEIRICQKFPKSTVQKRFSEFEELIKAASKNARNWKPISSVELFQGDSSLNELFEKLVIGTCELRDGELFENVNDLTINPSNIHVYKLHKDGPLSQNIGDDDGDESIIGSQLWQLPCVEFDSIWENLIYDSNLKNEVMSYVAALARLSEKHVNTKIINVNRLILLTGPPGTGKTSLCKGLAQHLSIRMNDKYSKSVMLEINSHSLFSKAFSESGKLVQKMFDQIDELAEDEKCMVFVLIDEVESLGMCRESSSSRSEPSDAIRAVNALLTQIDRIRRRDNVLILCTSNLESTLDKALVDRADIVKNVGQPSDFARYSMLKSSIMELARIGVVIDNEVHTDYWPQDICDTKAPRNEFTEILFKIAQEARGLSGRAISMLPTLVYSKSPEETITLPNCMNLFLEAVKERLSRNN				6	Km [4]: 28.3 ± 1.9 µM; kcat [4]: 168.7 +/- 2.3 ATP min^-1
C. elegans PCH-2 'pore loop AG' mutant (enzyme, UniProt Q09535 1-424, looked up, also called PCH-2^AG; source: E. coli Rosetta 2 (DE3) pLysS, purified (Ni-NTA, Hitrap Q ion exchange, Superdex 200 SEC); not shown: His6, N-terminal, cleaved) MHEPMKTLKNIHAEIRICQKFPKSTVQKRFSEFEELIKAASKNARNWKPISSVELFQGDSSLNELFEKLVIGTCELRDGELFENVNDLTINPSNIHVYKLHKDGPLSQNIGDDDGDESIIGSQLWQLPCVEFDSIWENLIYDSNLKNEVMSYVAALARLSEKHVNTKIINVNRLILLTGPPGTGKTSLCKGLAQHLSIRMNDKYSKSVMLEINSHSLAGAAGAAAGALVQKMFDQIDELAEDEKCMVFVLIDEVESLGMCRESSSSRSEPSDAIRAVNALLTQIDRIRRRDNVLILCTSNLESTLDKALVDRADIVKNVGQPSDFARYSMLKSSIMELARIGVVIDNEVHTDYWPQDICDTKAPRNEFTEILFKIAQEARGLSGRAISMLPTLVYSKSPEETITLPNCMNLFLEAVKERLSRNN	20.2 ± 1.6 µM	85.4 +/- 1.2 ATP min^-1		6	
C. elegans PCH-2^F222A (enzyme, UniProt Q09535 1-424, looked up, PCH-2, C. elegans, full length, pore loop mutation F222A; also called pore loop mutant F222A; source: E. coli Rosetta 2 (DE3) pLysS, purified (Ni-NTA, Hitrap Q ion exchange, Superdex 200 SEC); not shown: His6, N-terminal, cleaved) MHEPMKTLKNIHAEIRICQKFPKSTVQKRFSEFEELIKAASKNARNWKPISSVELFQGDSSLNELFEKLVIGTCELRDGELFENVNDLTINPSNIHVYKLHKDGPLSQNIGDDDGDESIIGSQLWQLPCVEFDSIWENLIYDSNLKNEVMSYVAALARLSEKHVNTKIINVNRLILLTGPPGTGKTSLCKGLAQHLSIRMNDKYSKSVMLEINSHSLFSKWASESGKLVQKMFDQIDELAEDEKCMVFVLIDEVESLGMCRESSSSRSEPSDAIRAVNALLTQIDRIRRRDNVLILCTSNLESTLDKALVDRADIVKNVGQPSDFARYSMLKSSIMELARIGVVIDNEVHTDYWPQDICDTKAPRNEFTEILFKIAQEARGLSGRAISMLPTLVYSKSPEETITLPNCMNLFLEAVKERLSRNN	19.3 ± 0.8 µM	11.7 +/- 0.1 ATP min^-1		6	
Mus musculus TRIP13 (enzyme, M. musculus, UniProt Q3UA06 1-432, looked up, TRIP13, M. musculus, full length; Mixture of oligomeric states from monomer to hexamer by SEC-MALS; also called wild-type TRIP13; source: E. coli Rosetta 2 (DE3) pLysS, purified (Ni-NTA, Hitrap Q ion exchange, Superdex 200 SEC); not shown: His6, N-terminal, cleaved) MDEAVGDLKQALPCVAESPAVHVEVLQRSGSTAKKEDIKSSVYRLLNRHNIVFGDYVWTEFDDPFLSRNVQSVSIVDTELKAKDPQPIDLSACTIALHIFQLNEEGPSSENLDEETENIIAASHWVLPAAEFHGLWDSLVYDVEVKSHLLDYVMTTVLFSDKNVDSNLITWNRVVLLHGPPGTGKTSLCKALAQKLTIRLSSRYRYGQLIEINSHSLFSKWFSESGKLVTKMFQKIQDLIDDKEALVFVLIDEVESLTAARNACRAGAEPSDAIRVVNAVLTQIDQIKRHSNVVILTTSNITEKIDVAFVDRADIKQYIGPPSAAAIFKIYLSCLEELMKCQIIYPRQQLLTLRELEMIGFIENNVSKLSLLLSEISRKSEGLSGRVLRKLPFLAHALYIQAPSVTIEGFLQALSLAVDKQFEEKKKLSAYV			≤ 6		Km [6]: 13.9 ± 0.6 µM; kcat [6]: 8.7 +/- 0.1 ATP min^-1
TRIP13 (Mus musculus; W221A) (protein, full-length, N-terminal His6 tag removed with TEV protease, E. coli Rosetta 2 (DE3) pLysS) MDEAVGDLKQALPCVAESPAVHVEVLQRSGSTAKKEDIKSSVYRLLNRHNIVFGDYVWTEFDDPFLSRNVQSVSIVDTELKAKDPQPIDLSACTIALHIFQLNEEGPSSENLDEETENIIAASHWVLPAAEFHGLWDSLVYDVEVKSHLLDYVMTTVLFSDKNVDSNLITWNRVVLLHGPPGTGKTSLCKALAQKLTIRLSSRYRYGQLIEINSHSLFSKAFSESGKLVTKMFQKIQDLIDDKEALVFVLIDEVESLTAARNACRAGAEPSDAIRVVNAVLTQIDQIKRHSNVVILTTSNITEKIDVAFVDRADIKQYIGPPSAAAIFKIYLSCLEELMKCQIIYPRQQLLTLRELEMIGFIENNVSKLSLLLSEISRKSEGLSGRVLRKLPFLAHALYIQAPSVTIEGFLQALSLAVDKQFEEKKKLSAYV					Km [6]: 24.4 ± 1.3 µM; kcat [6]: 18.7 +/- 0.2 ATP min^-1
M. musculus TRIP13^E253Q (enzyme, UniProt Q3UA06 1-432, looked up, TRIP13, M. musculus, full length, Walker B mutation E253Q; also called Walker B mutant; ATP hydrolysis-defective TRIP13; source: E. coli Rosetta 2 (DE3) pLysS, purified (Ni-NTA, Hitrap Q ion exchange, Superdex 200 SEC); not shown: His6, N-terminal, cleaved) MDEAVGDLKQALPCVAESPAVHVEVLQRSGSTAKKEDIKSSVYRLLNRHNIVFGDYVWTEFDDPFLSRNVQSVSIVDTELKAKDPQPIDLSACTIALHIFQLNEEGPSSENLDEETENIIAASHWVLPAAEFHGLWDSLVYDVEVKSHLLDYVMTTVLFSDKNVDSNLITWNRVVLLHGPPGTGKTSLCKALAQKLTIRLSSRYRYGQLIEINSHSLFSKWFSESGKLVTKMFQKIQDLIDDKEALVFVLIDQVESLTAARNACRAGAEPSDAIRVVNAVLTQIDQIKRHSNVVILTTSNITEKIDVAFVDRADIKQYIGPPSAAAIFKIYLSCLEELMKCQIIYPRQQLLTLRELEMIGFIENNVSKLSLLLSEISRKSEGLSGRVLRKLPFLAHALYIQAPSVTIEGFLQALSLAVDKQFEEKKKLSAYV			6		
M. musculus MAD2 (wild type) (natural protein, UniProt Q9Z1B5 1-205, looked up, MAD2, M. musculus, full length; Predominantly dimeric by SEC-MALS; also called WT MAD2; wild-type MAD2 dimer; source: E. coli Rosetta 2 (DE3) pLysS, purified (Ni-NTA, Hitrap Q ion exchange, Superdex 200 SEC); not shown: His6, N-terminal, cleaved) MAQQLAREQGITLRGSAEIVAEFFSFGINSILYQRGIYPSETFTRVQKYGLTLLTTTDPELIKYLNNVVEQLKEWLYKCSVQKLVVVISNIESGEVLERWQFDIECDKTAKEEGVRREKSQKAIQDEIRSVIRQITATVTFLPLLEVSCSFDLLIYTDKDLVVPEKWEESGPQFITNCEEVRLRSFTTTIHKVNSMVAYKTPVND			2		binding result [7]: binds
M. musculus C-MAD2^R133A (closed conformer of the monomeric MAD2 R133A variant) (natural protein, UniProt Q9Z1B5 1-205, looked up, MAD2, M. musculus, full length, dimerization-defective mutation R133A; the closed conformer, purified apart from the open one by anion exchange; also called closed MAD2; source: E. coli Rosetta 2 (DE3) pLysS, purified; closed conformer peak separated by anion exchange; not shown: His6, N-terminal, cleaved) MAQQLAREQGITLRGSAEIVAEFFSFGINSILYQRGIYPSETFTRVQKYGLTLLTTTDPELIKYLNNVVEQLKEWLYKCSVQKLVVVISNIESGEVLERWQFDIECDKTAKEEGVRREKSQKAIQDEIRSVIAQITATVTFLPLLEVSCSFDLLIYTDKDLVVPEKWEESGPQFITNCEEVRLRSFTTTIHKVNSMVAYKTPVND					binding result [8]: binds
